Test results reported in IntAct's records for PubMed 21505419.

B1: Suppressor protein STP22 of temperature-sensitive alpha-factor receptor and arginine permease (Saccharomyces cerevisiae), P25604 (parent)
chain: MSANGKISVPEAVVNWLFKVIQPIYNDGRTTFHDSLALLDNFHSLRPRTRVFTHSDGTPQLLLSIYGTISTGEDGSSPHSIPVIMWVPSMYPVKPPFISINLENFDMNTISSSLPIQEYIDSNGWIALPILHCWDPAAMNLIMVVQELMSLLHEPPQDQAPSLPPKPNTQLQQEQNTPPLPPKPKSPHLKPPLPPPPPPQPASNALDLMDMDNTDISPTNHHEMLQNLQTVVNELYREDVDYVADKILTRQTVMQESIARFHEIIAIDKNHLRAVEQAIEQTMHSLNAQIDVLTANRAKVQQFSSTSHVDDEDVNSIAVAKTDGLNQLYNLVAQDYALTDTIECLSRMLHRGTIPLDTFVKQGRELARQQFLVRWHIQRITSPLS
partner: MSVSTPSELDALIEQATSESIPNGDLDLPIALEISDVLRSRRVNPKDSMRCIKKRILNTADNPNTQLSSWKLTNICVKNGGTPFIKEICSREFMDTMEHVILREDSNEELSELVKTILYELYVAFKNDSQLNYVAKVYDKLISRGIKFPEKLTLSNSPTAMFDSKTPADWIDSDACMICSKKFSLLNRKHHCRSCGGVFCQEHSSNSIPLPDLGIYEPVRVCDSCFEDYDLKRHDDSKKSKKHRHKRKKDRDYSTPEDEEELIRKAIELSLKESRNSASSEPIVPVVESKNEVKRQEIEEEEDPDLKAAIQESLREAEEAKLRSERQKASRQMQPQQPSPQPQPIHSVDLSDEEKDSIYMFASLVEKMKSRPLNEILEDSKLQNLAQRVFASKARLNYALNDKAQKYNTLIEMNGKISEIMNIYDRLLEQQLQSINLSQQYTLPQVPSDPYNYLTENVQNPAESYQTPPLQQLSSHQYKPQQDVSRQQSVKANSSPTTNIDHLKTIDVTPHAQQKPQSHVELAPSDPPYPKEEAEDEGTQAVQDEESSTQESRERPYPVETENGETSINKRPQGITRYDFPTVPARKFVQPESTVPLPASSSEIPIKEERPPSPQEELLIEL

Variants of: B1
Settings: with vps27_yeast VPS27, P40343

effect of a mutation on the interaction	Variant
decreasing interaction	T49V

Variants of: B1
Settings: with vps27_yeast VPS27, P40343
Remark: another data set of the same source

effect of a mutation on the interaction	Variant
decreasing interaction	L61N

Variants of: B1
Settings: with vps27_yeast VPS27, P40343
Remark: another data set of the same source

effect of a mutation on the interaction	Variant
disrupting interaction	W16A
